The values that follow come from the DeepSol protein solubility set.

A short description of this data set: soluble on expression in E. coli; label from the status in PepcDB or PDB records.
As for “SLSTIGSMMSIYSEAGDFGNIFVTGRIAFSLKYEQQTQSLVVHVKECHQLAYADEAKKRSNPYVKTYLLPDKSRQGKRKTSIKRDTVNPLYDETLRYEIPESLLAQRTLQFSVWHHGRFGRNTFLGEAEIQMDSWKLDKKLDHCLPLHGKISAESPTGLPSHKGELVVSLKYIPASKTPVGGDRKKSKGGEGGELQVWIKEAKNLTAAKAGGTSDSFVKGYLLPMRNKASKRKTPVMKKTLNPHYNHTFVYNGVRLEDLQHMCLELTVWDREPLASNDFLGGVRLGVGTGISNGEVVDWMDSTGEEVSLWQKMRQYPGSWAEGTLQLRSSMAKQKLG”, the “soluble on expression in E. coli” value is given as “soluble”.
Take “SLSWDSVVERIRIFLVESPIKMARLQGVGNVKGSVKRVLLEVTSADGIVGWGEAAPWEVFTGTPEAAFSALDIYLRPLILGAPIKRVRELMARMDKMLVGHGEAKAAVEMALLDILGKATGLSVADLLGGRVRDRIPLSFSIADPDFDADLERMRAMVPAGHTVFKMKTGVKPHAEELRILETMRGEFGERIDLRLDFNQALTPFGAMKILRDVDAFRPTFIEQPVPRRHLDAMAGFAAALDTPILADESCFDAVDLMEVVRRQAADAISVKIMKCGGLMKAQSLMAIADTAGLPGYGGTLWEGGIALAAGTQLIAATPGISLGCEFYMPHHVLTEDVLEERIANSAGHVIVPDGPGLGISISEASLRGNAKILAER”: the “soluble on expression in E. coli” value is listed as “soluble”.
Take “SLVASGYPLSQTFGHGDIHFLPPELADARTSKIKVPFQSLLCDGEDEFRKGARYVLREGVDFIKIFVTGGVASQKDKPEFPQMTRGEIAAVVEEARRAGRLVHAHAESSEGYINAVEEGVKTLAHGMDLNQDAINLSVEKDVTLIPTLSIVDVALKFGPSNNLPEWMLEKLKEVHEIHAESIKRAYRERVRLATGTDFFIGAKEVQLYGLNSLEIKLLVGLGVKPMDALKAVIKEGEIVKQS”: the “soluble on expression in E. coli” value is recorded as “not soluble”.
Take “SLWASADAIQQKLADLEKRSGGRLGVALINTADDSQTLYRGDERFAMCSTGKVMAAAAVLKQSESNPEVVNKRLEIKKSDLVVWSPITEKHLQSGMTLAELSAAALQYSDNTAMNKMISYLGGPEKVTAFAQSIGDVTFRLDRTEPALNSAIPGDKRDTTTPLAMAESLRKLTLGNALGEQQRAQLVTWLKGNTTGGQSIRAGLPASWAVGDKTGAGDYGTTNDIAVIWPENHAPLVLVTYFTQPQQDAKSRKEVLAAAAKIVTEGL”: the “soluble on expression in E. coli” value is listed as “soluble”.
For “SLYRIVLGKVSTLSAAPLPPGLREQAPQGPRRERWLAGRALLSHTLSPLPEIIYGEQGKPAFAPETPLWFNLSHSGDDIALLLSDEGEVGCDIEVIRPRANWRWLANAVFSLGEHAEMDAVHPDQQLEMFWRIWTRKEAIVKQRGGSAWQIVSVDSTYHSSLSVSHCQLENLSLAICTPTPFTLTADSVQWIDSVN” the value was “not soluble”; for “SMANHLVKPDSRNCKRARELEPQVSDSPQVSSLGKSESSLSEASGLFYKEEALEKDLSDMSKEINLMLSTYAKILSERAAVDASYIDEIDGLFKEANIIENFLVQKREFLKQRFTVITNTLHK”, “soluble”; for “SMDSSALPDPGFQKITLSSSSEEYQKVWNLFNRTLPFYFVQKIERVQNLALWEVYQWQKGQMQKQNGGKAVDERQLFHGTSAIFVDAICQQNFDWRVCGVHGTSYGKGSYFARDAAYSHHYSKSDTQTHTMFLARVLVGEFVRGNASFVRPPAKEGWSNAFYDSCVNSVSDPSIFVIFEKHQVYPEYVIQYTTSSKPS”, “soluble”.
As for “SMGGPQYGIAREDVVLNRILGEGFFGEVYEGVYTNHKGEKINVAVKTCKKDCTLDNKEKFMSEAVIMKNLDHPHIVKLIGIIEEEPTWIIMELYPYGELGHYLERNKNSLKVLTLVLYSLQICKAMAYLESINCVHRDIAVRNILVASPECVKLGDFGLSRYIEDEDYYKASVTRLPIKWMSPESINFRRFTTASDVWMFAVCMWEILSFGKQPFFWLENKDVIGVLEKGDRLPKPDLCPPVLYTLMTRCWDYDPSDRPRFTELVCSLSDVYQMEKDIAME”, the “soluble on expression in E. coli” value is “soluble”.
Take “SMKYKLNVLLAEIALIGTGNHYHEEANCIAEWLHLKGEEEAVQLIRLSSLMNRGDYASALQQGNKLAYPDLEPWLALCEYRLGLGSALESRLNRLARSQDPRIQTFVNGMREQLKT”: the “soluble on expression in E. coli” value is reported as “soluble”.
On to “SNAFHPVYSVQLEQKLVEKFNLKRALISLDQPNTNEQRKQVAALVSSYLNNNLQEGMAVAVGQGQNVAAVADHAGIVTQRNARFVSAIGGTHRSGDIINADHICRRLAKKYGGSSETLYAPAYVNDPSLRSAFMEHATIKETLSQARKAEFALVGIGDMDENSHMVKLGFFTPKEFVEARLNDGIVGDIGGFDFFKLDGTDADTLMRGRVIGLEMEDLRQIPNVVAMASESRKALSIMGALRTGVIDVLATSVSCAMALLNLAENEE”, for which the “soluble on expression in E. coli” value is given as “soluble”.
For “SNAGLIDESEQRLVDNIFEFEEKKIREIMVPRTDMVCIYESDSEEKILAILKEEGVTRYPVCRKNKDDILGFVHIRDLYNQKINENKIELEEILRDIIYISENLTIDKALERIRKEKLQLAIVVDEYGGTSGVVTIEDILEEIVGEIQ”, the “soluble on expression in E. coli” value is on record as “soluble”.
Consider “SNAKIIGYARVSFNAQKDDLERQIQLIKSYAEENGWDIQILKDIGSGLNEKRKNYKKLLKMVMNRKVEKVIIAYPDRLTRFGFETLKEFFKSYGTEIVIINKKHKTPQEELVEDLITIVSHFAGKLYGMHSHKYKKLTKTVKEIVREEDAKEKE”, for which the “soluble on expression in E. coli” value is “soluble”.
Regarding “SNAMHSDALSWGHGPRLFEVFLEPTCPFSVKAFFKLDDLLAQAGEDNVTVRIRLQSQPWHMFSGVIVRCILAAATLEGGKESAKAVMTAVASHREEFEFEHHAGGPNLDATPNDIIARIERYSGLALAEAFANPELEHAVKWHTKYARQNGIHVSPTFMINGLVQPGMSSGDPVSKWVSDIG”, the “soluble on expression in E. coli” value was “soluble”.
For “SNAMIVGIGIDIIELNRIEKMLDGKLKFMERILTENERNVAKGLKGSRLTEFVAGRFAAKEAYSKAVGTGIGKEVSFLDIEVRNDDRGKPILITSTEHIVHLSISHSKEFAVAQVVLESSSS” the value was “soluble”; for “SNAMKAIIKEDVQASLERYADRPVYIHLETTTGSYSAHLNEKNMTVVAYIRNAKVTYHQAKIKGNGPYRVGLKTEEGWIYAEGLTEYTVDEENRLLMAGHLPGGKLAISLQISEKPFTV”, “soluble”.
Consider “SNAMKLIAIDLDGTLLNSKHQVSLENENALRQAQRDGIEVVVSTGRAHFDVMSIFEPLGIKTWVISANGAVIHDPEGRLYHHETIDKKRAYDILSWLESENYYYEVFTGSAIYTPQNGRELLDVELDRFRSANPEADLSVLKQAAEVQYSQSGFAYINSFQELFEADEPIDFYNILGFSFFKEKLEAGWKRYEHAEDLTLVSSAEHNFELSSRKASKGQALKRLAKQLNIPLEETAAVGDSLNDKSMLEAAGKGVAMGNAREDIKSIADAVTLTNDEHGVAHMMKHLL”, for which the “soluble on expression in E. coli” value was “soluble”.
On to “SNAMRLVADSACDIKELRGMVFKAVPLTISTDNEEFCDDGQLDIHRMLDILEKHKGRSYTACPGIDAWLEAFGDDDEIFVVTITAGMSGTYNSAMAARAVYLEEHPQAKVRVIDSKSTGPQMRIILEQLQQMIEEGKKFEEIDGAIDAYMQKTRLFCSLKSLHNLAQNGRVSKVVASAAEVLGISVIGTASSHGTLEAIGKCRGDKKLLVKLQALLDDAGYEGGKLRICHVENEALADKIADMIKQAYGTTDVCVYKAGGLCSYYAERGGIILSCETK”, for which the “soluble on expression in E. coli” value is on record as “soluble”.
With “SNAMVEAIIFDMDGVLFDTEKYYYDRRASFLGQKGISIDHLPPSFFIGGNTKQVWENILRDEYDKWDVSTLQEEYNTYKQNNPLPYKELIFPDVLKVLNEVKSQGLEIGLASSSVKADIFRALEENRLQGFFDIVLSGEEFKESKPNPEIYLTALKQLNVQASRALIIEDSEKGIAAGVAADVEVWAIRDNEFGMDQSAAKGLLDSLTDVLDLI”, the “soluble on expression in E. coli” value was “soluble”.
As for “SNASAFTEGTDYMVLEKPIPNADKTLIKVFSYACPFCYKYDKAVTGPVSDKVADLVTFTPFHLETKGEYGKQASEVFAVLIAKDKAAGISLFDAKSQFKKAKFAWYAAYHDKKERWSDGKDPAAFIKTGLDAAGMSQADFEAALKDPAVQETLEKWKAAYDVAKIQGVPAYVVNGKYLIYTKNIKSIDSMAELVRELATKK”, the “soluble on expression in E. coli” value is on record as “soluble”.
As to “SNKDLVHIGVLQYVEHPSLSATRKGFIEELKEEGYVDGKNIKIDYQNAQGDQSNLQTISQSLIEDNDVMLAIATPAAQSLSSLTKGKPILFTAVTDPVSAKLVKSMDNVGGNVTGTSDMSPINKQVELLKKVFPNTKKVGIMYTTSERNSEVQVEEAKKYFKEAGIETVIKGISSTNDIQDTAKSLMSQTEVIFIPTDNTIVSAINTLVDLSKETKVPVVGSDAGSVEKGVLFTYGTNYEALGRQTGKLAGRVLRGEKVKDIDAEYPKTLNVVVNHDMAKKLGIDVSSISDEESKVSTKDDKPIAK”, the “soluble on expression in E. coli” value is listed as “not soluble”.
“SNSLHWPTSLPSGDAFSSVGTHRFVQKVEEMVQNHMTYSLQDVGGDANWQLVVEEGEMKVYRREVEENGIVLDPLKATHAVKGVTGHEVCNYFWNVDVRNDWETTIENFHVVETLADNAIIIYQTHKRVWPASQRDVLYLSVIRKIPALTENDPETWIVCAFSVDHDSAPLNNRCVRAKINVAMICQTLVSPPEGNQEISRDNILCKITYVANVNPGGWAPASVLRAVAKREYPKFLKRFTSYVQEKTAGKPILF”: the “soluble on expression in E. coli” value is reported as “soluble”.
With “SPCKYSRSEVVLTFFERSPLDQVLKNDNVHKIQPSFQSPVKISEIMRSNGFCLANTETIVIDHSIPNGRDQQLGVDQTEHLFENGSEFPSELEDGDDPAAYVTNLSYYHLVPFETDIWD”, the “soluble on expression in E. coli” value is “soluble”.
The value for “SPINPYKDHMSVLKAYYAMNMEPNSDELLKISIAVGLPQEFVKEWFEQRKVYQYSNSR” was “soluble”; that for “SPRPPDDPGFGPHQRLEKLDSLLSDYDILSLSNIQQHSVRKRDLQTSTHVETLLTFSALKRHFKLYLTSSTERFSQNFKVVVVDGKNESEYTVKWQDFFTGHVVGEPDSRVLAHIRDDDVIIRINTDGAEYNIEPLWRFVNDTKDKRMLVYKSEDIKNVSRLQSPKVCGYLKVDNEELLPKGLVDREPPEGKT” was “soluble”.
As for “SPVRTECPPPAGASTTSAASLIPPPPINTQQPGVATSLLYSGSKFRGHQKSKGNSYDVEVVLQHVDTGNSYLCGYLKIKGLTEEYPTLTTFFEGEIISKKHPFLTRKWDADEDVDRKHWGKFLAFYQYAKSFNSDDFDYEELKNGDYVFMRWKEQFLVPDHTIKDISGASFAGFYYICFQKSAASIEGYYYHRSSEWYQSLNLTHVPEHSAPIYEFR”, the “soluble on expression in E. coli” value is “soluble”.
For the sequence “SQFDILCKTPPKVLVRQFVERFERPSGEKIASCAAELTYLCWMITHNGTAIKRATFMSYNTIISNSLSFDIVNKSLQFKYKTQKATILEASLKKLIPAWEFTIIPYNGQKHQSDITDIVSSLQLQFESSEEADKGNSHSKKMLKALLSEGESIWEITEKILNSFEYTSRFTKTKTLYQFLFLATFINCGRFSDIKNVDPKSFKLVQNKYLGVIIQCLVTETKTSVSRHIYFFSARGRIDPLVYLDEFLRNSEPVLKRVNRTGNSSSNKQEYQLLKDNLVRSYNKALKKNAPYPIFAIKNGPKSHIGRHLMTSFLSMKGLTELTNVVGNFSDKRASAVARTTYTHQITAIPDHYFALVSRYYAYDPISKEMIALKDETNPIEEWQHIEQLKGSAEGSIRYPAWNGIISQEVLDYLSSYINRRIGHHHHHH”, the “soluble on expression in E. coli” value is “soluble”.
For “SQVARWLGLDIPSPPIGSLFGVEIPEETGTKLEERVVDASMLSHGDLLMNLSLRDEELVILVRRGEGYRVPKGRMHLQVGDVLLIVSEKNLSQTLTSGDPENHPGLLQRLKHRLLRR” the value was “not soluble”.
